Test [1] concerns the target T1, mECD: full-length extracellular region of mouse MuSK (E22 to T494) with C-terminal Avi- and His6-tags (mouse, UniProt Q61006 22-494, biotinylated in vitro using the BirA enzyme).
T1 construct: range 22-494; also called mouse ECD; not shown: Avi- and His6-tags
T1 sequence (looked up): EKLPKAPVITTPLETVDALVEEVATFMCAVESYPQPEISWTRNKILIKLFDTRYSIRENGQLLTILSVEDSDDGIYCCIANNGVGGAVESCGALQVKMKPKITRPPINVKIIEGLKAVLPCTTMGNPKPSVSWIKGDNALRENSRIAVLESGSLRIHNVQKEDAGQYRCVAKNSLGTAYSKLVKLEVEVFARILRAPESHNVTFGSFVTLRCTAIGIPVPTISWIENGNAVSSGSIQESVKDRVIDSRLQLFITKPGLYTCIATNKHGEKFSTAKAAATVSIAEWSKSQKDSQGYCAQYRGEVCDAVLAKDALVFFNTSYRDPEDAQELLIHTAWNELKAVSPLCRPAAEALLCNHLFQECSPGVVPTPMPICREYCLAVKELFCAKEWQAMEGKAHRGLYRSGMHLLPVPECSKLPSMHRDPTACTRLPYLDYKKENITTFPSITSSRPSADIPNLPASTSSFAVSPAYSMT
In words: bead-binding titration, Fab format: antigen immobilized on streptavidin beads, MFI by flow cytometry, curve is the 1:1 fit. (Flow cytometry measures light scatter and fluorescence of single cells or particles in a stream.)

Test [2] deals with T2, hECD: full-length extracellular region of human MuSK (E22 to T495) with C-terminal Avi- and His6-tags (human, UniProt O15146 22-495, biotinylated in vitro using the BirA enzyme).
T2 construct: also called human ECD; not shown: Avi- and His6-tags
T2 sequence: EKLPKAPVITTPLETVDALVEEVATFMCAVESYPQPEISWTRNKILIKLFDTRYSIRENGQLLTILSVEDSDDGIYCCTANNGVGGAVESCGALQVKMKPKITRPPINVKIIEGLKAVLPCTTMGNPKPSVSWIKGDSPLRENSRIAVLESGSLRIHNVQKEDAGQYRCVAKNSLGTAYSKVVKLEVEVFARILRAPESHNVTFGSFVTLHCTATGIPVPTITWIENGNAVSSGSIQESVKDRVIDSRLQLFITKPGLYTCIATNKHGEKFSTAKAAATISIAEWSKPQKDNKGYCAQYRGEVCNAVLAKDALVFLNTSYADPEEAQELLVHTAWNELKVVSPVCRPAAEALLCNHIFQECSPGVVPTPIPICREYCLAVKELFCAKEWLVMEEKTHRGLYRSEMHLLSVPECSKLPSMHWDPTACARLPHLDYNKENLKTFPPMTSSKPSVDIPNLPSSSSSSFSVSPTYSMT
The description is as above.

In test [3] the target is T3, hFz: Fz domain and C-terminal flanking sequence of human MuSK (K314-T495) with C-terminal Avi- and His6-tags (human, UniProt O15146 314-495, biotinylated in vitro using the BirA enzyme).
T3 construct: also called human Fz; not shown: Avi- and His6-tags
T3 sequence: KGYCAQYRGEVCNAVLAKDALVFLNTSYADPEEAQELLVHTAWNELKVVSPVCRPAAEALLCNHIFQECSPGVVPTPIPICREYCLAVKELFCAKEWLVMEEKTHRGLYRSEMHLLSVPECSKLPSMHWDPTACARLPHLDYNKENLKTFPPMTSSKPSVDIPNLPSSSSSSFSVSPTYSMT
The description is as above.

Test [4] deals with T4, mFz: Fz domain and C-terminal flanking sequence of mouse MuSK (D307 to T494) with C-terminal Avi- and … (mouse, UniProt Q61006 307-494, limits assumed, biotinylated in vitro using the BirA enzyme).
T4 construct: also called mouse Fz; not shown: Avi- and His6-tags
T4 sequence (looked up): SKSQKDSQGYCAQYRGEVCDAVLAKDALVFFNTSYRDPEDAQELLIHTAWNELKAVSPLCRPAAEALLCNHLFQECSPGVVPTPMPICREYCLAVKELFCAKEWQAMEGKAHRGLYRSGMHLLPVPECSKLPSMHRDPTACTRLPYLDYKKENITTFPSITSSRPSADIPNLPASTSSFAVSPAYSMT
The test is described as above.

The target of test [5] is T1, mECD: full-length extracellular region …. In words: bead-binding assay, Fab format: biotinylated antigen on streptavidin beads, flow cytometry, 1:1 fit; average ± s.d., n=3.
Test [6] has as its target T2, hECD: full-length extracellular region …. The test is described as above.
Test [7] concerns the target T3, hFz: Fz domain and C-terminal flanking …. Described as above.
Test [8] addresses T4, mFz: Fz domain and C-terminal flanking …. The description is as above.
In test [9] the target is T5, mouse MuSK (mouse, UniProt Q61006 22-494, limits assumed).
T5 construct: Coated on ELISA plates or on the Biacore chip; also called full length mouse MuSK; mouse MuSK (in house produced in HEK293 cells)
T5 sequence (looked up): T1 sequence (looked up)
In words: Biacore T200, MuSK on chip (200RU), 22.2 nM Fab, dissociation pH 5.5. As for the experimental part: (§1) In order to study pH dependent binding of the antibodies described herein to MuSK, a Biacore T200 was used. Briefly, a CMS chip was coated with human and mouse MuSK (200RU) and 22.2 nM of Fab was applied and kinetic parameters calculated. Association was done at pH7.4, dissociation was done at pH 7.4 and also at pH 5.5. The following Fabs were tested, X2, X2m4, X3, X9, X17, 3B2 and 3B2g2m1 (Table 10 and FIG. 23). […] Binding affinity at pH 5.5 is very low, resulting in a rapid dissociation at endosomal pH allowing 3B2g2m1 to recycle.
(SPR reads the build-up and loss of mass on a sensor chip optically.)

The target in test [10] is T6, human MuSK (human, UniProt O15146 24-495).
T6 construct: Recombinant protein coated on ELISA plates (R&D Systems cat. 10189-MK) or on the Biacore chip; also called human muscle-specific tyrosine protein kinase; full length human MuSK
T6 sequence: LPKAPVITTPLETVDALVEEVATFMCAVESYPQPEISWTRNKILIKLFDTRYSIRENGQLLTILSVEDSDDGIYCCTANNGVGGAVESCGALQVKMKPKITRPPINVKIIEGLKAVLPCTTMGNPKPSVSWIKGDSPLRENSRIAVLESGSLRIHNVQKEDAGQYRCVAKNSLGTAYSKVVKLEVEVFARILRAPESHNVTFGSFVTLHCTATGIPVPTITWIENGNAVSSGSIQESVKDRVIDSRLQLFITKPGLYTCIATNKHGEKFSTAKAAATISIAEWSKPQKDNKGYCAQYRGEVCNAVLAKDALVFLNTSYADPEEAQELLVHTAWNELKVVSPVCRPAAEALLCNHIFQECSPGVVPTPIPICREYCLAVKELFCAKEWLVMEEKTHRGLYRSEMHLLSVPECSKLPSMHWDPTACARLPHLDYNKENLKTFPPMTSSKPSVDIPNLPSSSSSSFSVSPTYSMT
The test is described as above. As for the experimental part: as §1

Test [11] has as its target T5, mouse MuSK. In words: Biacore T200, MuSK on chip (200RU), 22.2 nM Fab, dissociation pH 7.4. The procedure:
as §1

Test [12] addresses T6, human MuSK. The description is as above. As for the experimental part: as §1
The target of test [13] is T5, mouse MuSK. Put plainly: Biacore, MuSK on chip (200RU), Fab dilution series. From the text:
(§2) For affinity determination, a CMS chip was coated with either human or mouse MuSK (200RU) and a dilution series of the antibodies (mAbs and Fabs) was applied in order to be able to calculate the affinity.

The target in test [14] is T6, human MuSK. In words: Biacore, MuSK on chip (200RU), Fab dilution series.
Excerpt: as §2

Test [15] has as its target T5, mouse MuSK. In words: Biacore T200, off rate at pH 5.5 against pH 7.4. The procedure:
as §1

Test [16] addresses T6, human MuSK. In words: Biacore T200, off rate at pH 5.5 against pH 7.4. The procedure:
as §1

B1: X6 Fab (Fab, V domains shown)
VH: EVQLVESGGGLVQPGGSLRLSCAASGFTFSSSSIHWVRQAPGKGLEWVASISSYSGYTYYADSVKGRFTISADTSKNTAYLQMNSLRAEDTAVYYCARTYGSYYVSSYTGMDYWGQGTLVTVSS
VL: DIQMTQSPSSLSASVGDRVTITCRASQSVSSAVAWYQQKPGKAPKLLIYSASSLYSGVPSRFSGSRSGTDFTLTISSLQPEDFATYYCQQSSSSLITFGQGTKVEIK
notes: also called Fab Clone X6
For orientation: EC50 (read off the curve) means the midpoint of the concentration-response curve. A high value points to weaker potency. By Kd is commonly meant a measure of binding affinity in units of concentration. Read a low Kd as higher affinity. Take B1: the “EC50 (read off the curve)” value was around 0.6 nM in test [1], around 1 nM in test [2], around 1 nM in [3] and around 0.4 nM in test [4]. The equilibrium dissociation constant (Kd) in test [5] was determined as 0.59 nM; in [6], 1.47 nM; in test [7] it was 0.9 nM; in test [8], 0.42 nM.

B2: 3B2 Fab (Fab, V domains shown)
VH: ELQLVESGGGLVQPGGSLRLSCAASGFTFDDYGMSWVRQAPGKGLEWVSAIPWNGGSTYYKESVKGRFTISRDNAKKTLYLQMNSLKSEDTAVYYCAKRSGRIAFGALDAWGQGTLVTVSS
VL: QAVVTQEPSLSVSPGGTVTLTCGLSSGSVTSSNYPDWYQQTPGQAPRGLIYSTDSRHSGVPSRFSGSISGNKAALTITGAQSEDEADYYCGLYMYSGSKNYVFGGGTKLTVL
notes: Fab format; also called Fab 3B2
As a reminder, the koff is a measure of how fast the partners let go of each other. A high value points to fast dissociation. Regarding B2, the off-rate (koff) in the test with mouse MuSK [9] was 0.109 s⁻¹; in the test with human MuSK [10] it was 0.0224 s⁻¹; with mouse MuSK [11], 0.00347 s⁻¹; in the test with human MuSK [12], 0.00388 s⁻¹. For the same molecule, the dissociation constant (Kd) was found to be 1.52 nM in the test with mouse MuSK [13] and 3.18 nM with human MuSK [14]. The “Ratio pH 5.5/7.4 of off rate” value with mouse MuSK [15] worked out at 31.5; with human MuSK [16], 5.8.

B3: X13 Fab (Fab, V domains shown)
VH: EVQLVESGGGLVQPGGSLRLSCAASGFTISSSSIHWVRQAPGKGLEWVASISSSSGSTSYADSVKGRFTISADTSKNTAYLQMNSLRAEDTAVYYCARSSEHWYTIGYYGIDYWGQGTLVTVSS
VL: DIQMTQSPSSLSASVGDRVTITCRASQSVSSAVAWYQQKPGKAPKLLIYSASSLYSGVPSRFSGSRSGTDFTLTISSLQPEDFATYYCQQSYGSFSLITFGQGTKVEIK
notes: also called Fab Clone X13
B3: the “EC50 (read off the curve)” value in [1], in test [2], in test [3] and in [4] was around 2 nM in each case. The dissociation constant Kd in test [5] was 2.41 nM; in [6], 2.39 nM; in [7], 1.7 nM; in test [8] it was 1.56 nM.

The values above are taken from patent publication US20230151091A1 (NEW YORK UNIVERSITY, published 2023).
